Data taken from the nanobody polyreactivity screen of Harvey et al. (2022).

Assay: yeast display, Sf9 membrane polyspecificity reagent, FACS + sequencing; frameworks hold sequencing errors
How it was run: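 Genes from sorted yeast were amplified by colony PCR, read by MiSeq 2 × 250 sequencing and filtered on CDR length. These cells carried a synthetic nanobody library in Saccharomyces cerevisiae BJ5465 and were sorted by FACS into low and high (top ~1%) gates on anti-HA and streptavidin fluorescence. Polyreactivity is labelled according to the gate of origin.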

Sequence | polyreactivity (PSR sort gate)
QVQLVESGGGLVQAGGSLRLSCAASGSIFHLYLGWYRQAPRKERELVAVIKSSGDSTYYADSVKGRFTISRDNAKNTVYLQMNSMKPEDTAVYYCNARRRGPRYRYCYWGQGTQVTVSS | high polyreactivity
QVQLVESGGGLVQAGGSLRLSCAASGFTFYYNAMGWYRQAPGKERELVAAITWDGGRTYYADSVKGRYTISRDNAKNTVYLQMNSLKTVDTAVYYCAAVEYSEHWDGYSWGEYYYWGQGTQVTVSS | high polyreactivity
QVQLVESGGGLVQAGGSLRLSCAASGFTFSTNAMGWYRPAPGKERELVAAISPDGGTYYADSVKGRFTISRDNAKNTVYLQMNSLIPEDTAVYYCAAVWGRGVWDLYDYWGQGTQVTVSS | low polyreactivity
QVQLVESGGGLVQAGGSLRLSCAASGFIFGYNGMGWYRQAPGKERELVAGITYSDGSTYYADSVKGRFTISRDNAKNTVYLQMNSLKPEDTAVYYCAVEVGYTDSPYSYDYWGQGTQVTVSS | low polyreactivity
QVQLVESGGGLVQAGGSLRLSCAASGSTFPYNAMGWYRPAPGKERELVAAITAGGARTYYADSVKGRFTISRDNAKNTVYLQMNSLKPEDTAVYYCNKVKATSYRYYYWGQGTQVTVSS | high polyreactivity
QVQLVESGGGLVQAGGSLRLICAASGGTFWIYAMGWYRQAPGKERELVAGITTSGATTYYADSVKGRFTISRDNAKNTVYLQMNSLKPEDTAVYYCAADEYYRYEYWGQGTQVTVSS | low polyreactivity
QGQLVESGGGLVQAGGILRLRCAASGRMFQQYAMGWYRQAPGKERELVAVITYRAGRTHYADSVKGRFTISRDIAKNTVYLQMYRVKPDDTAVYYCAAGRYYAVWHSISGFDSWGQGTQETVSS | low polyreactivity
QVQLVESGGGLVQAGGSLRLSCAASGSTFVFYAMGWYRQAPGKERELVAGISDSGGNTYYADSVKGRFTISRDNAKNTVYLQMNSLKPEDTAVYYCATRYPYYPFYVGIYELDYWGQGTQVTVSS | low polyreactivity
QVQLVESGGGLVQAGGSLRLTCAASGSILYTYAMGWYRQAPGKERELVAAISRGGGSTYYADSVKGRFTISRDNAKNTVYLQMNSLKPEDTAVYYCAARKLTRGTGRDDEYWGQGTQVTVSS | high polyreactivity
PVQLVESGGGLVPGGGSLRLSCAASGRIFNAYARGWYRQAPGKERELVAAISSRGGSTYYADSVKGRCTISRDNAKNSVYLQKNSLPPEDTAVYYCAAGIYTATGYGYWGQGTQVTVSS | high polyreactivity
QVQLVESGGGLVQAGGSLRLSCAASGITFFIYAMGWYRQAPGKQRELFAAIRSGGSTNYADSVKGRFTISRDNAQNTVYLQMNSLKPEDTSVFYCAADVYGTVRRVGWYYVGEGYDYWGQGTQVTVSS | low polyreactivity
QVQLVESGGGLVQAGGSLRLSCAASGSIFGHNTMGWYRQPPGKERELVAAITWNGGRTYYADSVKGRFTISRDNAKNTVYLQMNSLKPEDTAVYYCNAVVKTYGYKAHRYPSSRLNYWGQGTQVTVSS | high polyreactivity
QVQLVESGGGLVQAGGSLRLSCAASGSIFPYNVMGWYRQAPGKERELVAAISTRGGRTYYADSVKGRFTISRDNAKNTVYLQMNSLNPEDTAVYYCATAGGPYSASGYYWGQGTKVTVSS | high polyreactivity
QVQLVESGGGLVQAGGSLRLSCAASGFTFYYNAMGWYRQAPGKERELVAAMSGRGGSTHYADSVKGRFTISRDNAKNTVYLQMNSLKPEDTAVYYCNKVVRGSPEFDYWGQGTQVTVSS | high polyreactivity
QVQLVESGGGLVQAGGSLRLSCAASGSTFVYYTMGWYRQAPGKERELVATITYGGGSTYYADSVKGRFTISRDNAKNTVYLQMNSLKPEVTAVYYCAARPSWVRKMYYWGQGTQVTVSS | high polyreactivity
QVQLVESGGGLVQAGGSLRLSCAASGRTFNQYAMGWYRQAPGKERELVAAISRRTGRTYYADSVKGRFTISRDNAKNTVYLQMNSLKQEDTAVYYCAAGFTYLNYTPWYRFNYWGQGTQVTVSS | high polyreactivity
QVKLVESGGGLVQAGGSLRLSCAASGFTIANYAMGWYRQAPGKERELVAAITTSGSTYYADSVKGRFTISRDNAKNTVYLQMNSLKPEDTAVYYCAVSIWVWFASGFDYWGQGTQVTVSS | high polyreactivity
QVQLVESGGCLVQAGGSLRLSCAASGLTFRGYAKGWYRPAPGKERELVAAITSSAGRTNYADSVKGRFTISRDNAKNTVYLQMNSLNPEDTAVYYCAAAHSYTTRWGYYKFNYWGQGTQVSVSS | high polyreactivity
QVQLVESGGGLVQAGGSLRLSCAASGITLSWYAMGWSRQAPGKERELVAGISGRGGRTYYADSVKGRFTISRDNAKNTVYLQMNSLKPEDTAVYYCAADCPGYRSYDYWGQGTQVTVSS | high polyreactivity
QVQLVESGGGLVQAGGSLRLSCAASGRIFTHNSMGWYRQAPGKERELVAAISYSGVSTYYADSVKGRFTISRDTAKNTVFLQMNSLKPEDTAVYYCNAVWEYSGKSDYWGQGTQVSVSS | low polyreactivity
QVQLVESGGGLVQAGGSLRLSCAASGRIFRSNAMGWYRQAPGKERELVATISRRGGSTYYADSVKGRFTISRDNAKNTVYLQMNSLKPEDTAVYFCNTRNSGSLDLYNTMDYWGQGTQVTVSS | high polyreactivity
QVQLVESGGGLVQAGGSLRLSCAASGSIFVVYAMGWYRQAPGKERELVAGISGRDGSTYYADSVKGRFTISRDNGKNTVYLQMNSLKPEDTAVYYSARVYWGQGTQVTVSS | low polyreactivity

Sequence | polyreactivity (PSR sort gate)
QVQLVESGGGLVHAGGILRLSCAASGSTFTPNAMGWYRQAPGKEREFVAAITYSGGTTYNADSVKGRFTISRDNAKKTVYLQRNRLKPEDTAVYYCAAVYFLLYYEAYYYWGQGTQVNVSS | low polyreactivity
QVQLVESGGGLVQAGGSLRLSCAASGSIFTLYAIGWSRQAPGKERELVAAISRRGGSTYYADSVKGRFTISRDNAKNTVYLQMNSLKPEDTAVYYCNAYRSNYLIGSSSYGLDYWGHGTQVTVSS | high polyreactivity
QVQLVESGGGLVQAGGSLRLSCAASGFIFGFYAMGWYRQAPGKERELVADITSSGGSTYYADSVKGRFTISRDNAKYSVYLQMNSLKPEDTAVYYCAADGWWHNFYPGTGLDYWGQGTQVTVSS | low polyreactivity
QVQLVESGGGLVQAGGSLRLSCAASGRTLVDYGMGWYRQPPGKERELVAVITSGGSTYYADSVKGRFTISRDNAKNTVYLVMNSLKPEDTAVYYCNARHPYYTVQTGGYDYWGQGTQVTVSS | low polyreactivity
QVQLVESAGGLVQAGGSLSLSCAASGITFIPNPMGWYRQAPGKERELVAAISISGGRTYYADSVKGRFTISRDNAKNTVYLQMNSLKPEDTAVYYCAADRADFFVIRTIDPYDYWGQGTQVTVSS | low polyreactivity
QVQLVESGGGLVQAGGSLRLSCAASGRTFSYYAMRWYRQAPGKERELVAAITSGGSTYYADSVKGRFTISRDNAKNTVYLQMNSLKPEDTAVYYCAKYQSYGPVPFGRGYGHYYWGQGTQVTVSS | high polyreactivity
HVQLVESGGGLVQAGGSLRLSCAASGNTFTEYAMGWYRQAPGKERELVASITGSGGSTYADSVRGRFTISRDNAKNTVYLQMNSLKPEDTAVYYCAKDPRYEYVGSEYGYWGQGTQVTVSS | low polyreactivity
QVQLVESGGGLVQAGGSLRLSCAASGRIFVSNARGWYRQSPGKECELVAAISKSAARTAYADSVKGRFTISRDTAKNTVYLQMNSLKPEDTAVYYCNADRYRLYGESKGEGNYWGQGTQVTVSS | high polyreactivity
QVQLVESGGGLVQAGGSLRLSCAASGFTFRWYDMGWYRQAPGKERELVAAITWRGDNTYYADSVKGRFTISRDNAKNTVYLQMNSLKPEDTAVYYCAAAWPTFISDLSGVDYWGQGTQVTVSS | low polyreactivity
QVQLVESGGGLVQAGGSLRLSCAASGSTFGWYAMGWYRQAPGKETELDAAISWSGGSTYYADSVKGRFTISRDNAKNTVYLQMNSLKPEDTAVYYCARDTQYPYYFLMDYWGQGTQVTVSS | low polyreactivity
QVQLVESGGGLVQAGGSLRLSCAASGSIFANYAMGWYRQAPGKERELVAAISRGGGTTYYADSVKGRFTISRDNAKNTVYLQMNSLKPEDTAVYYCAAARRYATQFHYDSWGQGTQVTVSS | high polyreactivity
QVQLVESGGGLVQAGGILRLSCAASGLIFPPNAMGWYRQAPGKERELVASITRSGGSTYYADSVKGRFTISRDNAKNTVYLQMNSLKPEDTAVYYCAAYLDTSRYGVLYDYWGQGTQVTVSS | low polyreactivity
QVQLVESGGGLVQAGGSLRLSCAASGNTFDVYVMGWYRQAPGKERELVAAINKGGGRTYYADSVKGRFTISRDNAKNTVYLQMNSLKPEDTAVYYCAAVSPKYESSYYYWGQGTQVTVSS | high polyreactivity
QVQLVESGGGLVQAGGSLRLSCAASGRILRINPMGWYRQAPGKERELVAAISGSGGTTYYADSVKGRFTISRDNAKNTVYLQMNSLKPEDTAVYYCNKAIWYAEYDYWGQGTQVTVSS | low polyreactivity
QVQLVESGGGLVQAGGSLRLSCAASGFIFRDNAMGWYRQAHGKERELVASIRSSGGRTYYADSVKGRFTISRDNAKNTVYLQMNSLKPEDTAVYYCARRWYPVTPYARMYYWGQGTQVTVSS | low polyreactivity
QVQLVESGGGLVQAGGSLRLSCAASGFTFVYYAMGWSRQAPGKERELVAAISRSGATTYYADSVKGRFTISRDNAKNTVYLQMNSLKPEDTAVYYCAAVYRHPRENWPDTRYGYWGQGTQVTVSS | high polyreactivity
QVQLVESGGGLVQAGGSLRLSCAASGIIFPYNAMGWYTQAPGKERELVAAITGGGSTYYADSVKGRFTISRDNAKNTVYLQMNSLKPEDTAVYYCAADRSGPGYDYWGQGTQVTVSS | low polyreactivity
QVQLVESGGGLVQAGGSLRLSCAASGFTFGNYAMYWVRQAPGKERELVAAINYSGGSTYYADSVKGRFTISRDNAKNTVYLQMNSLKPEDTAVYYCAADTYPASYDYWGQGTQVTVSS | high polyreactivity
QVQLVESGGGLVQAGGSLRLSCAASGSIFSKYVMGWYRQAPGKEMELVASITSGGRTNYADSVKGRFTISRDNAKNTVYLQMNSLKPEDTAVYYCAARALKTWYRSGVDYWGQGTQVTVSS | low polyreactivity
QVQLVESGGGLLQAGGSLRLICAASGSTFSTNAMGWYRQAPGKERELVAAISRSGGSTNYADSVKGRFTISRDNAKNTVYLQMNSLKPEDTAVYYCARYSYRGTNVRYDYWGQGTQVTVSS | high polyreactivity
QVQLVESGGGLVQAGGSLRLSCAAAGSTFLRNALGWSRPAPGKKVSWVATISYDGDSTYYADSVKGRFTISRDNAKNTVYLQMNSLKPEDTAVYYCAASYSLTFWDKDDYWGQGTQVTVSS | low polyreactivity
